In the experiment the target is MurAA-His6 (wild-type), UDP-N-acetylglucosamine 1-carboxyvinyl transferase of Enterococcus faecalis (Enterococcus faecalis). Briefly: thermal shift assay.
Chain of MurAA-His6 (wild-type), UDP-N-acetylglucosamine 1-carboxyvinyl transferase of Enterococcus faecalis (Enterococcus faecalis) (Q831A8 whole entry): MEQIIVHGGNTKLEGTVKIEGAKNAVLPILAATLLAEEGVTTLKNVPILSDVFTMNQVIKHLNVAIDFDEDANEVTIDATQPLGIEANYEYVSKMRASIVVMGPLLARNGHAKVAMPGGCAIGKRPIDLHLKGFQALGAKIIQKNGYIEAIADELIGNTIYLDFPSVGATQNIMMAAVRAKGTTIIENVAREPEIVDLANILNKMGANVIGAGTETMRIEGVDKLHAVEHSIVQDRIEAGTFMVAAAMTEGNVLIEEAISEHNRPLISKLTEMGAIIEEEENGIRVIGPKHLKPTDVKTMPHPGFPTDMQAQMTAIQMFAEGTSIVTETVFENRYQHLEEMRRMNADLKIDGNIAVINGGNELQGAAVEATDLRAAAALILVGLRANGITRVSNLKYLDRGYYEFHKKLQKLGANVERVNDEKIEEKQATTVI

B1: IreB (unphosphorylated), substrate of the PASTA kinase IreK of Enterococcus faecalis (natural protein)
chain: MGFTDETVRFDFDDNRKKAISETLETVYRALEEKGYNPINQIVGYLLSGDPAYIPRYQDARNLIRRHERDEIMEELTKYYLANHGIDIK
With B1, the additional shift of the MurAA Tm with IreB worked out at 16.5 °C.

The values are drawn from article PMC10872757.
